Molecular target: HLA-A3 (human)
Test: assembly assay, stabilisation of HLA-A3 in T2-A3 lysates, W6/32 immunoprecipitation

Row | C50 value (peptide concentration required for half maximal recovery of class I MHC molecules) | Binder
1 | > 40 | RAGLQVRKNK [Rho1 (…), native RhoC-derived peptide]
2 | 4 | RLGLQVRKNK [Rho1L2 (…), modified RhoC peptide with Leu at position 2]

— patent publication US20190247480A1
